These results are taken from patent US20200297760A1 (JUNO THERAPEUTICS, published 2020).

Assay [1] addresses HLA-A*11:01 (recombinant MHC class I molecule) (human). Briefly: REVEAL MHC-peptide binding assay, recombinant HLA-A*11:01. The procedure: (§1) Specifically, assessment was of a series of overlapping 9-mer peptides derived from the sequence […] (set forth in SEQ ID NO: 7), which contains a portion of the CD28 transmembrane domain and 4-1BB costimulatory domain spanning the junction between the domains (bond joining the two amino acids noted in underline). In addition, a series of overlapping 9-mer peptides of each of a number of different variants of this portion also were assessed, each variant containing a mutation or mutations in this region as described in Example 2.
(§2) The various 9-mer overlapping peptides were synthesized and their purity tested by MALDI-TOF Mass Spectrometry.

The target of assay [2] is HLA-B*08:01 (recombinant MHC class I molecule) (human). Briefly: REVEAL MHC-peptide binding assay, recombinant HLA-B*08:01. The method, then: as §1, §2
For a further assay, the target named is T1, HLA-A*02:01 (human).
T1 construct: recombinant MHC class I molecule incubated with the synthetic peptide (REVEAL, ProImmune)
Briefly: REVEAL MHC-peptide binding assay, recombinant HLA. The procedure:
as §1, §2

The next assay concerns the target T2, HLA-A*03:01 (human).
T2 construct: recombinant MHC class I molecule incubated with the synthetic peptide (REVEAL, ProImmune)
Briefly: REVEAL MHC-peptide binding assay, recombinant HLA. The procedure:
as §1, §2

VAFIIFWVA [Synthetic peptide VAFIIFWVA]: the “In Vitro Score” value in assay [1] is 2.8 score, % of positive control peptide; in assay [2], 0 score, % of positive control peptide. For VAFIIFWVL [Synthetic peptide VAFIIFWVL], the “In Vitro Score” value in assay [1] was 0.2 score, % of positive control peptide; in assay [2], 0 score, % of positive control peptide. VAFIIFWVH [Synthetic peptide VAFIIFWVH]: the “In Vitro Score” value in assay [1] is 12.3 score, % of positive control peptide; in assay [2] it was 0 score, % of positive control peptide. With VAFIIFWVQ [Synthetic peptide VAFIIFWVQ], the “In Vitro Score” value in assay [1] was 3.9 score, % of positive control peptide; in assay [2], 0.2 score, % of positive control peptide.

B1: FWVKRGRKK (peptide)
peptide: FWVKRGRKK
notes: synthetic 9-mer of the CD28-4-1BB junction; mutation: none
B1: the entries for the “In Vitro Score” value with HLA-A*02:01 and in the assay with HLA-A*03:01 were 3.5 % of positive control peptide and 2.2 % of positive control peptide, respectively.

B2: FWVHRGRKK (peptide)
peptide: FWVHRGRKK
notes: synthetic 9-mer variant; the entry already carries the change
Consider B2, for which the figures for the “In Vitro Score” value in the assay with HLA-A*02:01 and with HLA-A*03:01 were 1.6 % of positive control peptide and 3.6 % of positive control peptide, respectively.

B3: FWVARGRKK (peptide)
peptide: FWVARGRKK
notes: as for B2
On to B3, for which the figures for the “In Vitro Score” value with HLA-A*02:01 and in the assay with HLA-A*03:01 were 13.5 % of positive control peptide and 5 % of positive control peptide, respectively.

B4: FWVKRGNKK (peptide)
peptide: FWVKRGNKK
notes: as for B2
As to B4, the “In Vitro Score” value with HLA-A*03:01 is 3.6 % of positive control peptide.

B5: FWVKRGAKK (peptide)
peptide: FWVKRGAKK
notes: as for B2
Regarding B5, the “In Vitro Score” value in the assay with HLA-A*02:01 was 4.3 % of positive control peptide; in the assay with HLA-A*03:01 it was 4.7 % of positive control peptide.

B6: FWVKRGLKK (peptide)
peptide: FWVKRGLKK
notes: as for B2
As to B6, the “In Vitro Score” value with HLA-A*03:01 is 2.7 % of positive control peptide. For the molecule IFWVKRGRK [Synthetic peptide IFWVKRGRK], the “In Vitro Score” value in assay [1] is 29.3 score, % of positive control peptide; in assay [2] it was 0.4 score, % of positive control peptide. Consider IFWVLRGRK [Synthetic peptide IFWVLRGRK], for which the “In Vitro Score” value was 29.3 score, % of positive control peptide in assay [1] and 0 score, % of positive control peptide in assay [2]. As for IFWVQRGSK [Synthetic peptide IFWVQRGSK], the “In Vitro Score” value in assay [1] was 103 score, % of positive control peptide; in assay [2], 0 score, % of positive control peptide.

B7: IIFWVKRGH (peptide)
peptide: IIFWVKRGH
notes: as for B2
Regarding B7, the “In Vitro Score” value was 5.3 % of positive control peptide with HLA-A*02:01 and 26.6 % of positive control peptide with HLA-A*03:01.

B8: IIFWVQRGS (peptide)
peptide: IIFWVQRGS
notes: synthetic 9-mer variant; the entry already carries the changes
In the case of B8, the “In Vitro Score” value is 22.4 % of positive control peptide with HLA-A*02:01 and 4.5 % of positive control peptide with HLA-A*03:01.

B9: IIFWVQRGN (peptide)
peptide: IIFWVQRGN
notes: as for B8
For B9, the “In Vitro Score” value is 13 % of positive control peptide in the assay with HLA-A*02:01 and 3.6 % of positive control peptide in the assay with HLA-A*03:01.

As to FWVKRGRKK [Synthetic peptide FWVKRGRKK], the “In Vitro Score” value in assay [1] was 6.5 score, % of positive control peptide; in assay [2] it was 0 score, % of positive control peptide.

Regarding FWVQRGNKK [Synthetic peptide FWVQRGNKK], the “In Vitro Score” value in assay [1] is 5.9 score, % of positive control peptide; in assay [2] it was 0 score, % of positive control peptide. For FWVSRGRKK [Synthetic peptide FWVSRGRKK], the “In Vitro Score” value was 6.3 score, % of positive control peptide in assay [1] and 0 score, % of positive control peptide in assay [2]. For the molecule FWVKRGSKK [Synthetic peptide FWVKRGSKK], the “In Vitro Score” value is 5.6 score, % of positive control peptide in assay [1] and 0.1 score, % of positive control peptide in assay [2]. Regarding FWVKRGLKK [Synthetic peptide FWVKRGLKK], the “In Vitro Score” value was 25.3 score, % of positive control peptide in assay [1] and 6.3 score, % of positive control peptide in assay [2]. As to FWVKRGHKK [Synthetic peptide FWVKRGHKK], the “In Vitro Score” value in assay [1] was 27.6 score, % of positive control peptide; in assay [2] it was 0.4 score, % of positive control peptide. Turning to FWVQRGRKK [Synthetic peptide FWVQRGRKK], the “In Vitro Score” value in assay [1] was 5.7 score, % of positive control peptide; in assay [2], 1.9 score, % of positive control peptide.

For FWVKRGNKK [Synthetic peptide FWVKRGNKK], the “In Vitro Score” value in assay [1] is 7.3 score, % of positive control peptide; in assay [2], 0.1 score, % of positive control peptide. As for FWVQRGAKK [Synthetic peptide FWVQRGAKK], the “In Vitro Score” value was 18.3 score, % of positive control peptide in assay [1] and 0 score, % of positive control peptide in assay [2]. For the molecule FWVARGRKK [Synthetic peptide FWVARGRKK], in assay [2], the “In Vitro Score” value is 0 score, % of positive control peptide. On to FWVLRGRKK [Synthetic peptide FWVLRGRKK], for which the “In Vitro Score” value in assay [1] was 5 score, % of positive control peptide; in assay [2], 0 score, % of positive control peptide. On to FWVQRGSKK [Synthetic peptide FWVQRGSKK], for which the “In Vitro Score” value is 6.8 score, % of positive control peptide in assay [1] and 0 score, % of positive control peptide in assay [2]. FWVHRGRKK [Synthetic peptide FWVHRGRKK]: the “In Vitro Score” value in assay [1] was 5.6 score, % of positive control peptide; in assay [2], 0 score, % of positive control peptide. With FWVKRGAKK [Synthetic peptide FWVKRGAKK], the “In Vitro Score” value was 13.2 score, % of positive control peptide in assay [1] and 0.3 score, % of positive control peptide in assay [2].

B10: IFWVKRGRK (peptide)
peptide: IFWVKRGRK
notes: as for B1
Consider B10, for which the “In Vitro Score” value was 4.5 % of positive control peptide in the assay with HLA-A*02:01 and 20.5 % of positive control peptide with HLA-A*03:01.

B11: IFWVQRGSK (peptide)
peptide: IFWVQRGSK
notes: as for B8
Regarding B11, the “In Vitro Score” value was 33.5 % of positive control peptide in the assay with HLA-A*02:01 and 20.3 % of positive control peptide with HLA-A*03:01.

B12: IFWVLRGRK (peptide)
peptide: IFWVLRGRK
notes: as for B2
Regarding B12, the “In Vitro Score” value with HLA-A*02:01 is 2.9 % of positive control peptide; in the assay with HLA-A*03:01, 19.5 % of positive control peptide.

FIIFWVKRG [Synthetic peptide FIIFWVKRG]: the “In Vitro Score” value in assay [1] was 0.4 score, % of positive control peptide; in assay [2], 0.1 score, % of positive control peptide. On to FIIFWVLRG [Synthetic peptide FIIFWVLRG], for which the “In Vitro Score” value is 2.4 score, % of positive control peptide in assay [1] and 0.2 score, % of positive control peptide in assay [2]. As to FIIFWVSRG [Synthetic peptide FIIFWVSRG], the “In Vitro Score” value is 5.1 score, % of positive control peptide in assay [1] and 0.4 score, % of positive control peptide in assay [2]. As for FIIFWVQRG [Synthetic peptide FIIFWVQRG], the “In Vitro Score” value in assay [1] was 1.5 score, % of positive control peptide; in assay [2] it was 0.6 score, % of positive control peptide.

On to WVKRGRKKL [Synthetic peptide WVKRGRKKL], for which the “In Vitro Score” value in assay [1] was 4.8 score, % of positive control peptide; in assay [2], 28.5 score, % of positive control peptide.

On to WVQRGSKKL [Synthetic peptide WVQRGSKKL], for which, in assay [1], the “In Vitro Score” value is 5.9 score, % of positive control peptide.

For the molecule WVKRGLKKL [Synthetic peptide WVKRGLKKL], the “In Vitro Score” value was 22.1 score, % of positive control peptide in assay [1] and 65.7 score, % of positive control peptide in assay [2]. In the case of WVLRGRKKL [Synthetic peptide WVLRGRKKL], the “In Vitro Score” value in assay [1] was 3.2 score, % of positive control peptide; in assay [2] it was 4 score, % of positive control peptide. Turning to WVKRGRKKS [Synthetic peptide WVKRGRKKS], the “In Vitro Score” value in assay [1] is 6.7 score, % of positive control peptide; in assay [2], 4.3 score, % of positive control peptide. Take WVSRGRKKL [Synthetic peptide WVSRGRKKL]: the “In Vitro Score” value in assay [1] is 4.4 score, % of positive control peptide; in assay [2], 6.2 score, % of positive control peptide. For WVHRGRKKL [Synthetic peptide WVHRGRKKL], the “In Vitro Score” value in assay [1] is 5.6 score, % of positive control peptide; in assay [2] it was 19.2 score, % of positive control peptide. In the case of WVQRGAKKL [Synthetic peptide WVQRGAKKL], the “In Vitro Score” value was 3.8 score, % of positive control peptide in assay [1] and 11.4 score, % of positive control peptide in assay [2].

Consider IIFWVKRGH [Synthetic peptide IIFWVKRGH], for which the “In Vitro Score” value in assay [1] was 19.5 score, % of positive control peptide; in assay [2], 0.1 score, % of positive control peptide. As to IIFWVQRGN [Synthetic peptide IIFWVQRGN], the “In Vitro Score” value in assay [1] was 29 score, % of positive control peptide; in assay [2], 0 score, % of positive control peptide. On to IIFWVQRGS [Synthetic peptide IIFWVQRGS], for which the “In Vitro Score” value was 16.9 score, % of positive control peptide in assay [1] and 0.1 score, % of positive control peptide in assay [2].

Consider AFIIFWVKR [Synthetic peptide AFIIFWVKR], for which the “In Vitro Score” value in assay [1] is 25.9 score, % of positive control peptide; in assay [2], 1.9 score, % of positive control peptide. AFIIFWVLR [Synthetic peptide AFIIFWVLR]: the “In Vitro Score” value is 17.2 score, % of positive control peptide in assay [1] and 0.2 score, % of positive control peptide in assay [2]. In the case of AFIIFWVQR [Synthetic peptide AFIIFWVQR], the “In Vitro Score” value in assay [1] is 15 score, % of positive control peptide; in assay [2], 0 score, % of positive control peptide.
